Measurements from US20240117326A1 (COMMONWEALTH SCIENTIFIC AND INDUSTRIAL RESEARCH ORGANISATION, published 2024).

T1: MPP-processed MTP-FAγ51::NifU::HA fusion polypeptide encoded by SN32 (scar9::GG::NifU::HA) (Klebsiella oxytoca, UniProt P05343 1-274)
T1 construct: also called scar9::NifU::HA; processed NifU
T1 sequence: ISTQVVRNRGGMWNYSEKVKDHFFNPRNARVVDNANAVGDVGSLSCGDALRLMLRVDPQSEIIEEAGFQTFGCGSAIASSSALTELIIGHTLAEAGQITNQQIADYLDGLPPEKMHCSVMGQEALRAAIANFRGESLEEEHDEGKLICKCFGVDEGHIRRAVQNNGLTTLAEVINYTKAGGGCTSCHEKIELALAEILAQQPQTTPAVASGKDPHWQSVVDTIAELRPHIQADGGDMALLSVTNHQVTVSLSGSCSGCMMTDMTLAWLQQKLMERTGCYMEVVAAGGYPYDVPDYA

T2: MPP-processed MTP-FAγ51::NifS::HA fusion polypeptide encoded by SN31 (scar9::GG::NifS::HA) (Klebsiella oxytoca, UniProt P05344 1-397)
T2 construct: also called scar9-NifS::HA; processed NifS
T2 sequence: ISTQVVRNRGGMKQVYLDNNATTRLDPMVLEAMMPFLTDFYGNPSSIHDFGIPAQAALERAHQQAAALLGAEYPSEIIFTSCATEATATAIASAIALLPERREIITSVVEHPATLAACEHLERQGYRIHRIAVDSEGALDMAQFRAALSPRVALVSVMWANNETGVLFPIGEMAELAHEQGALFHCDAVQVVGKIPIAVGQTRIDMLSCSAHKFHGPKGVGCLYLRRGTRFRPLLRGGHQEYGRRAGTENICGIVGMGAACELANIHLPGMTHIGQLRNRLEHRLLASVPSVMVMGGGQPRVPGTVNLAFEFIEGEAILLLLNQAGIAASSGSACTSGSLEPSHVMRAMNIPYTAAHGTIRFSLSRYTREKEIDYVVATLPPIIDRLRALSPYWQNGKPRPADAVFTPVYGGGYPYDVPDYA

B1: MPP-processed MTP-FAγ51::NifS::TwinStrep fusion polypeptide encoded by SN231 (scar9::NifS::TS) (enzyme)
chain: not shown
notes: the text names scar9::NifS::TS in the eluate; also called MTP-FAγ51::NifS::TS
B2: MPP-processed MTP-FAγ51::HA::AnfK fusion polypeptide (gene of SN129; in SL26, SL30, SL93) (enzyme)
chain: ISTQVVRNRGGYPYDVPDYAGGMTCEVKEKGRVGTINPIFTCQPAGAQFVSIGIKDCIGIVHGGQGCVMFVRLIFSQHYKESFELASSSLHEDGAVFGACGRVEEAVDVLLSRYPDVKVVPIITTCSTEIIGDDVDGVIKKLNEGLLKEKFPDREVHLIAMHTPSFVGSMISGYDVAVRDVVRHFAKREAPNDKINLLTGWVNPGDVKELKHLLGEMDIEANVLFEIESFDSPILPDGSAVSHGNTTIEDLIDTGNARATFALNRYEGTKAAEYLQKKFEIPAIIGPTPIGIRNTDIFLQNLKKATGKPIPQSLAHERGVAIDALADLTHMFLAEKRVAIYGAPDLVIGLAEFCLDLEMKPVLLLLGDDNSKYVDDPRIKALQENVDYGMEIVTNADFWELENRIKNEGLELDLILGHSKGRFISIDYNIPMLRVGFPTYDRAGLFRYPTVGYGGAIWLAEQMANTLFADMEHKKNKEWVLNVW
notes: also called HA::AnfK processed
B3: unprocessed MTP-FAγ51::NifS::HA fusion polypeptide encoded by SN31 (enzyme)
chain: MMAMAVFRREGRRLLPSIAARPIAAIRSPLSSDQEEGLLGVRSISTQVVRNRGGMKQVYLDNNATTRLDPMVLEAMMPFLTDFYGNPSSIHDFGIPAQAALERAHQQAAALLGAEYPSEIIFTSCATEATATAIASAIALLPERREIITSVVEHPATLAACEHLERQGYRIHRIAVDSEGALDMAQFRAALSPRVALVSVMWANNETGVLFPIGEMAELAHEQGALFHCDAVQVVGKIPIAVGQTRIDMLSCSAHKFHGPKGVGCLYLRRGTRFRPLLRGGHQEYGRRAGTENICGIVGMGAACELANIHLPGMTHIGQLRNRLEHRLLASVPSVMVMGGGQPRVPGTVNLAFEFIEGEAILLLLNQAGIAASSGSACTSGSLEPSHVMRAMNIPYTAAHGTIRFSLSRYTREKEIDYVVATLPPIIDRLRALSPYWQNGKPRPADAVFTPVYGGGYPYDVPDYA
notes: Full-length translation product, not cleaved by MPP; also called unprocessed form of the NifS fusion polypeptide
B4: MPP-processed MTP-CoxIV::Twin Strep::AnfK fusion polypeptide (gene of SN195; in SL34, SL37, SL43) (enzyme)
chain: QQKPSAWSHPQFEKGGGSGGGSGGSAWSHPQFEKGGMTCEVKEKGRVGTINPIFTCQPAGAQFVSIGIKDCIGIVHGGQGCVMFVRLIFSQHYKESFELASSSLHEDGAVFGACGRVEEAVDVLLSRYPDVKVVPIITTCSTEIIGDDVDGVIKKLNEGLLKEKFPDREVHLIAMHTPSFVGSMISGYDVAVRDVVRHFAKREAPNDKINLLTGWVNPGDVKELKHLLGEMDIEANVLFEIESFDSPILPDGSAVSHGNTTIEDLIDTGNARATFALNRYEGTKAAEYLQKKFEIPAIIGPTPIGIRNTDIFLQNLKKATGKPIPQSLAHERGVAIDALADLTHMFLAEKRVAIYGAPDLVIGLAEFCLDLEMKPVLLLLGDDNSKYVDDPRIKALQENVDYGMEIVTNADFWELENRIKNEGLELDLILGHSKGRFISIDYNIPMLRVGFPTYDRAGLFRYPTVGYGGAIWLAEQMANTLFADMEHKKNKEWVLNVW
notes: also called MTP-CoxIV::TwinStrep::AvAnfK
B5: MPP-processed MTP-FAγ51::NifU::TwinStrep fusion polypeptide encoded by SN166 (scar9::GG::NifU::TS) (other)
chain: not shown
notes: N-terminal analysis and the tryptic peptide ISTQVVR confirmed cleavage at the intended site; Purified from N. benthamiana leaves; also called scar9-NifU::TS; scar9-NifU-TwinStrep

Legend:
[1] = target: T1, MPP-processed MTP-FAγ51::NifU::HA …; assay: co-purification on StrepTactinXT column through NifS::TS from N. benthamiana leaf extract (SN231 + SN32); anti-HA Western blot
[2] = target: T3, MPP-processed MTP-FAγ51::AnfD::Twin Strep fusion polypeptide (gene of SN177, expressed from multi-gene vector … (Azotobacter vinelandii, UniProt P16266 1-518)); assay: discussion of the AnfD::TwinStrep purification, aerobic
T3 construct: The eluted AnfD migrated at the size of the processed form; also called AnfD polypeptide (SL30)

[3] = target: B5; assay: co-purification on StreptactinXT column through NifU::TS from N. benthamiana leaf extract (SN31 + SN166), anaerobic, anti-HA Western blot of the eluate
[4] = target: T4, MPP-processed MTP-FAγ51::HA::AnfD fusion polypeptide (gene of SN161; in SL26, SL34, SL43, SL93) (Azotobacter vinelandii, UniProt P16266 1-518); assay: co-purification on Strep-tactin column through TwinStrep::AnfK (SL34), aerobic; anti-HA Western blot
T4 construct: also called HA::AnfD processed; AnfD polypeptide

[5] = target: T2, MPP-processed MTP-FAγ51::NifS::HA …; assay: co-purification on StreptactinXT column through NifU::TS from N. benthamiana leaf extract (SN31 + SN166), anaerobic, non-denaturing; anti-HA Western blot

T3 sequence (P16266 other isoform, or with tags, fused parts or gaps): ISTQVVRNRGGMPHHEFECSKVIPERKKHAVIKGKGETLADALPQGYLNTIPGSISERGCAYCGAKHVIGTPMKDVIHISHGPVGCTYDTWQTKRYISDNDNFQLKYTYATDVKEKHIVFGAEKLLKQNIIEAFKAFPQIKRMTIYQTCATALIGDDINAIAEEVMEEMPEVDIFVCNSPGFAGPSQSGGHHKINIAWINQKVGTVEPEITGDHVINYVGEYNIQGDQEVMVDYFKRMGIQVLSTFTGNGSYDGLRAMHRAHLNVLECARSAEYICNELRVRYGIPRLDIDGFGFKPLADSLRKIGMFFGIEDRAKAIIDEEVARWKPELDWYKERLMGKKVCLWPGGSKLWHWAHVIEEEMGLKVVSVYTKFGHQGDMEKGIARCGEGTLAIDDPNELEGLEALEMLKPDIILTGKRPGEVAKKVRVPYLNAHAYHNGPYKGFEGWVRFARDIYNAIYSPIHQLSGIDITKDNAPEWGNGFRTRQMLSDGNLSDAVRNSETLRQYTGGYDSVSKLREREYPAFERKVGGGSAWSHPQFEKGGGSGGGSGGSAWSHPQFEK

B1
binding result [1]: binds

B2
binding result [2]: binds

B3
binding result [3]: no binding

B4
binding result [4]: binds

B5
binding result [5]: binds
